# Bridges are numbered along the chain shown (N, C = ends). Where no end group is shown, it is not given here. [ ]: non-standard residue; d: D form. 1Nal = N[C@@H](Cc1cccc2ccccc12)C(=O)O; 2Nal = N[C@@H](Cc1ccc2ccccc2c1)C(=O)O; d2Nal = N[C@H](Cc1ccc2ccccc2c1)C(=O)O; hPhe = N[C@@H](CCc1ccccc1)C(=O)O; Cha = N[C@@H](CC1CCCCC1)C(=O)O; dCha = N[C@H](CC1CCCCC1)C(=O)O; dTle = CC(C)(C)[C@@H](N)C(=O)O; Nle = CCCC[C@H](N)C(=O)O; Apn = not defined here; Bal = not defined here; Ahx = NCCCCCC(=O)O; GABA = NCCCC(=O)O; βAla = NCCC(=O)O
# Target: hMC4-R (human), P32245
# Experiment: competition
# Settings: modification not given
# Sequence of hMC4-R (human), P32245 (P32245 whole entry): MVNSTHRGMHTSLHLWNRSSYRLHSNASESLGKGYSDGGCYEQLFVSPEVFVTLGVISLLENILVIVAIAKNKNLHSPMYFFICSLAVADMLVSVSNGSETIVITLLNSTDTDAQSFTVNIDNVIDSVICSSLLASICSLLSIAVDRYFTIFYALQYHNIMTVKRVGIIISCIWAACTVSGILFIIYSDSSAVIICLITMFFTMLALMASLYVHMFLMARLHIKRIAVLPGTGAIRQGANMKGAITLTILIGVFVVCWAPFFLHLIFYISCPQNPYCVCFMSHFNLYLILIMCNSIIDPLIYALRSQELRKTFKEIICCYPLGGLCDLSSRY
row,Binder,Ki [nM]
1,[Nle]CH[dF]RW[GABA]C-NH2 (disulfide 2-8) [Nle-c(Cys-His-D-Phe-Arg-Trp-Gaba-Cys)-NH2],0.47
2,Ac-[Nle]CH[dF]RW[Apn]C-NH2 (disulfide 2-8; reading uncertain) [Ac-Nle-c(Cys-His-D-Phe-Arg-Trp-Apn-Cys)-NH2],0.894
3,Ac-C[dA]H[dF]R[2Nal]AC-NH2 (disulfide 1-8; SMILES CC(=O)N[C@H]1CSSC[C@@H](C(N)=O)NC(=O)[C@H](C)NC(=O)[C@H](Cc2ccc3ccccc3c2)NC(=O)[C@H](CCCNC(=N)N)NC(=O)[C@@H](Cc2ccccc2)NC(=O)[C@H](Cc2c[nH]cn2)NC(=O)[C@@H](C)NC1=O) [Ac-c(Cys-D-Ala-His-D-Phe-Arg-2-Nal-Ala-Cys)-NH2],40.7
4,[Nle]CH[dF]RW[Apn]C-NH2 (disulfide 2-8; reading uncertain) [Nle-c(Cys-His-D-Phe-Arg-Trp-Apn-Cys)-NH2],0.85
5,Ac-[Nle]CH[d2Nal]RW[GABA]C-NH2 (disulfide 2-8) [Ac-Nle-c(Cys-His-D-2-Nal-Arg-Trp-Gaba-Cys)-NH2],0.375
6,Ac-[Nle]C[dL]H[dF]RWC-NH2 (disulfide 2-8; SMILES CCCC[C@H](NC(C)=O)C(=O)N[C@H]1CSSC[C@@H](C(N)=O)NC(=O)[C@H](Cc2c[nH]c3ccccc23)NC(=O)[C@H](CCCNC(=N)N)NC(=O)[C@@H](Cc2ccccc2)NC(=O)[C@H](Cc2c[nH]cn2)NC(=O)[C@@H](CC(C)C)NC1=O) [Ac-Nle-c(Cys-D-Leu-His-D-Phe-Arg-Trp-Cys)-NH2],4.13
7,Ac-[Nle]CH[d2Nal]RW[Ahx]C-NH2 (disulfide 2-8) [Ac-Nle-c(Cys-His-D-2-Nal-Arg-Trp-Ahx-Cys)-NH2],0.998
8,Ac-[Cha]DH[d2Nal]RW[GABA]K-NH2 (lactam 2-8; SMILES CC(=O)N[C@@H](CC1CCCCC1)C(=O)N[C@H]1CC(=O)NCCCC[C@@H](C(N)=O)NC(=O)CCCNC(=O)[C@H](Cc2c[nH]c3ccccc23)NC(=O)[C@H](CCCNC(=N)N)NC(=O)[C@@H](Cc2ccc3ccccc3c2)NC(=O)[C@H](Cc2c[nH]cn2)NC1=O) [Ac-Cha-c(Asp-His-D-2-Nal-Arg-Trp-Gaba-Lys)-NH2],2.82
9,Ac-[Nle]CH[dF]RW[Ahx]C-NH2 (disulfide 2-8; SMILES CCCC[C@H](NC(C)=O)C(=O)N[C@H]1CSSC[C@@H](C(N)=O)NC(=O)CCCCCNC(=O)[C@H](Cc2c[nH]c3ccccc23)NC(=O)[C@H](CCCNC(=N)N)NC(=O)[C@@H](Cc2ccccc2)NC(=O)[C@H](Cc2c[nH]cn2)NC1=O) [Ac-Nle-c(Cys-His-D-Phe-Arg-Trp-Ahx-Cys)-NH2],1.23
10,Ac-[hPhe]DH[dF]RW[GABA]K-NH2 (lactam 2-8) [Ac-hPhe-c(Asp-His-D-Phe-Arg-Trp-Gaba-Lys)-NH2],3.37
11,Ac-[Nle]C[dTle]H[dF]RWC-NH2 (disulfide 2-8) [Ac-Nle-c(Cys-D-Tle-His-D-Phe-Arg-Trp-Cys)-NH2],11.2
12,Ac-[Cha]CH[dF]RW[GABA]C-NH2 (disulfide 2-8; SMILES CC(=O)N[C@@H](CC1CCCCC1)C(=O)N[C@H]1CSSC[C@@H](C(N)=O)NC(=O)CCCNC(=O)[C@H](Cc2c[nH]c3ccccc23)NC(=O)[C@H](CCCNC(=N)N)NC(=O)[C@@H](Cc2ccccc2)NC(=O)[C@H](Cc2c[nH]cn2)NC1=O) [Ac-Cha-c(Cys-His-D-Phe-Arg-Trp-Gaba-Cys)-NH2],0.884
13,Ac-[Nle]DH[dF]RW[GABA]K-NH2 (lactam 2-8) [Ac-Nle-c(Asp-His-D-Phe-Arg-Trp-Gaba-Lys)-NH2],1.04
14,Ac-[Nle]C[dA]H[d2Nal]R[1Nal]C-NH2 (disulfide 2-8; SMILES CCCC[C@H](NC(C)=O)C(=O)N[C@H]1CSSC[C@@H](C(N)=O)NC(=O)[C@H](Cc2cccc3ccccc23)NC(=O)[C@H](CCCNC(=N)N)NC(=O)[C@@H](Cc2ccc3ccccc3c2)NC(=O)[C@H](Cc2c[nH]cn2)NC(=O)[C@@H](C)NC1=O) [Ac-Nle-c(Cys-D-Ala-His-D-2-Nal-Arg-1-Nal-Cys)-NH2],3.07
15,Ac-[Nle]C[dA]H[d2Nal]R[2Nal]C-NH2 (disulfide 2-8; SMILES CCCC[C@H](NC(C)=O)C(=O)N[C@H]1CSSC[C@@H](C(N)=O)NC(=O)[C@H](Cc2ccc3ccccc3c2)NC(=O)[C@H](CCCNC(=N)N)NC(=O)[C@@H](Cc2ccc3ccccc3c2)NC(=O)[C@H](Cc2c[nH]cn2)NC(=O)[C@@H](C)NC1=O) [Ac-Nle-c(Cys-D-Ala-His-D-2-Nal-Arg-2-Nal-Cys)-NH2],2.53
16,Ac-[Nle]C[dA]H[d2Nal]R[Bal]C-NH2 (disulfide 2-8; reading uncertain) [Ac-Nle-c(Cys-D-Ala-His-D-2-Nal-Arg-Bal-Cys)-NH2],16.6
17,Ac-[Nle]C[dCha]H[dF]RWC-NH2 (disulfide 2-8; SMILES CCCC[C@H](NC(C)=O)C(=O)N[C@H]1CSSC[C@@H](C(N)=O)NC(=O)[C@H](Cc2c[nH]c3ccccc23)NC(=O)[C@H](CCCNC(=N)N)NC(=O)[C@@H](Cc2ccccc2)NC(=O)[C@H](Cc2c[nH]cn2)NC(=O)[C@@H](CC2CCCCC2)NC1=O) [Ac-Nle-c(Cys-D-Cha-His-D-Phe-Arg-Trp-Cys)-NH2],1.41
18,Ac-[hPhe]DH[d2Nal]RW[GABA]K-NH2 (lactam 2-8) [Ac-hPhe-c(Asp-His-D-2-Nal-Arg-Trp-Gaba-Lys)-NH2],0.931
19,Ac-[Nle]DH[dF]RW[Apn]K-NH2 (lactam 2-8; reading uncertain) [Ac-Nle-c(Asp-His-D-Phe-Arg-Trp-Apn-Lys)-NH2],11.1
20,Ac-[2Nal]CH[dF]RW[GABA]C-NH2 (disulfide 2-8; SMILES CC(=O)N[C@@H](Cc1ccc2ccccc2c1)C(=O)N[C@H]1CSSC[C@@H](C(N)=O)NC(=O)CCCNC(=O)[C@H](Cc2c[nH]c3ccccc23)NC(=O)[C@H](CCCNC(=N)N)NC(=O)[C@@H](Cc2ccccc2)NC(=O)[C@H](Cc2c[nH]cn2)NC1=O) [Ac-2-Nal-c(Cys-His-D-Phe-Arg-Trp-Gaba-Cys)-NH2],2.94
21,Ac-[Nle]C[dI]H[dF]RWC-NH2 (disulfide 2-8) [Ac-Nle-c(Cys-D-Ile-His-D-Phe-Arg-Trp-Cys)-NH2],9
22,Ac-[Nle]C[dV]H[dF]RWC-NH2 (disulfide 2-8) [Ac-Nle-c(Cys-D-Val-His-D-Phe-Arg-Trp-Cys)-NH2],10.1
23,Ac-[Nle]DH[dF]RW[βAla]K-NH2 (lactam 2-8; SMILES CCCC[C@H](NC(C)=O)C(=O)N[C@H]1CC(=O)NCCCC[C@@H](C(N)=O)NC(=O)CCNC(=O)[C@H](Cc2c[nH]c3ccccc23)NC(=O)[C@H](CCCNC(=N)N)NC(=O)[C@@H](Cc2ccccc2)NC(=O)[C@H](Cc2c[nH]cn2)NC1=O) [Ac-Nle-c(Asp-His-D-Phe-Arg-Trp-β-Ala-Lys)-NH2],0.617

# Reference: patent publication US20170240595
